The results in this text go back to patent US20230340111A1 (published 2023).

Where two headings read alike, the source gives them in different places.

Assay [1] deals with T1, human FOLR1 expressed on SKOV-3 ovarian carcinoma cells (human, UniProt P15328 25-234).
T1 construct: Naturally expressed receptor on SKOV-3 cells; also called human FOLR1pos SKOV-3 cancer cells; human FOLR1-expressing cell line SKOV-3
Put plainly: saturation binding of 131I-labelled untagged VHH on SKOV-3 cells.

The target in assay [2] is T1, human FOLR1 expressed on SKOV-3 ovarian …. Put plainly: cellular retention on SKOV-3 cells: 10 nM 131I-VHH 1 h at 4 C, then up to 24 h at 37 C; membrane-bound plus internalized fraction. Put shortly: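 His₆-tagged and untagged ¹³¹I-VHHs were tested, with a 100-fold excess of unlabeled VHH for non-specific binding. Unbound and dissociated fractions were collected. Membrane-bound label was stripped with 0.05 M glycine pH 2.8, and internalized label was recovered by 1 M NaOH solubilization.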

Assay [3] shares this target. As to the kind of experiment: saturation binding of 131I-labelled untagged VHH on SKOV-3 cells. As for the experimental part:
In a first part, their in vitro behaviour was assessed by means of investigating their cellular binding and retention over time. The binding potential of the resulting radioconjugates was assessed to confirm that this was not affected by the introduction of ¹³¹I-SGMIB into the amino acid sequence of the different VHHs. To this, human FOLR1^pos SKOV-3 cancer cells were incubated with serial dilutions with concentrations ranging from 0 to 300 nM of the different ¹³¹I-labelled, His₆ tagged VHHs. A 100-fold excess of the corresponding unlabeled VHH was added in parallel to saturate the human FOLR1 receptors expressed on cancer cells, to assess non-specific binding.
A1 and A2 parental untagged VHH’s and derivatives were radiolabeled with theranostic isotope ¹³¹I, as described in example 3, and subjected to saturation binding studies as described in example 6.
The source holds these as a separate data set.

For assay [4], the target named is T2, human FOLR1 recombinant protein (extracellular domain of human folate receptor alpha) (human, UniProt P15328 25-233).
T2 construct: Bought recombinant protein (Sino Biological); also called hFOLR1; FR-alpha
As to the kind of experiment: SPR (Biacore T200), human FOLR1 immobilized on CM5, His6-tagged VHH as analyte, 1:1 fit. On the procedure: The kinetic parameters of antigen binding by purified VHHs were determined via surface plasmon resonance with a Biacore T200 instrument (GE Healthcare). The human FOLR1 recombinant protein (Sino Biological) was immobilized in 10 mM sodium acetate, pH 5.5 on a CM5 chip (GE Healthcare) via amine coupling chemistry to 500 RU. His₆-tagged VHHs were analyzed in a twofold serial dilution in HBS (125 nM-0.488 nM for VHHs A4 and A5; 10 nM-0.039 nM for VHHs A1, A2 and A3) with an analyte flow rate of 30 µl/min. The association phase took 180 s (A4-A5) or 450 s (A1-A3) and the dissociation phase 600 s (A4-A5) or 900 s (A1-A3). Regeneration was done by a single injection of 50 mM glycine-HCl, pH 2.5, 2 M MgCl₂ for 30 s at 30 µl/min, followed by 120 s stabilization. Binding curves were fitted using a ‘1:1 (antigen:analyte)’ binding model in Biacore T200 evaluation software.

Assay [5] deals with T2, human FOLR1 recombinant protein …. Put plainly: SPR (Biacore T200), single cycle kinetics, His6-tagged VHH immobilized on CM5, human FOLR1 as analyte, 1:1 fit. On the procedure:
The kinetic parameters of antigen binding for purified VHHs A1, A2 and A3 were determined via surface plasmon resonance with a Biacore T200 instrument (GE Healthcare) using single cycle kinetics mode. While example 4d provides a first and preferred way of assessing the kinetic parameters of antigen binding for VHHs using surface plasmon resonance, this example provides an alternative setup for using surface plasmon resonance to assess the kinetic parameters of antigen binding, inverting the analyte and immobilized ligand. His₆-tagged VHH A1, A2 or A3 was immobilized in 10 mM sodium acetate, pH 5.5 on a CM5 chip (GE Healthcare) via amine coupling chemistry to 160 RU. The human FOLR1 recombinant protein (Sino Biological) was analyzed in a threefold serial dilution in HBS (38.5 nM-0.47 nM) with an analyte flow rate of 30 µl/min. The association phase took 180 s for every concentration and the dissociation phase 900 s. Regeneration was done by a single injection of 50 mM glycine-HCl, pH 2.5, 2 M MgCl2 for 30 s at 30 µl/min, followed by 120 s stabilization. Binding curves were fitted using a ‘1:1 (antigen:analyte)’ binding model in Biacore T200 evaluation software.
In general terms: SPR reads the build-up and loss of mass on a sensor chip optically.

Assay [6] shares this target. As to the kind of experiment: SPR dual injection on immobilized human FOLR1, 250 nM; competitor (1st VHH, saturating) A2; by the legend the value is of the 2nd VHH. On the procedure:
(§1) Competitive binding characteristics of His₆-tagged VHHs were determined via surface plasmon resonance with a Biacore T200 instrument (GE Healthcare). Immobilization of human FOLR1 recombinant protein (Sino Biological) and regeneration were performed as described below for kinetic measurements.
(§2) Table 8: Side-by-side comparison of His₆-tagged VHHs A1, A2, A3, A4, A5 for binding to human FOLR1 to identify competitive binding characteristics. Binding was measured in surface plasmon resonance with immobilized human FOLR1 recombinant protein as the ligand. After saturation of the ligand with VHH 1 an equimolar mixture of VHH 1 and VHH 2 was injected. Percentages express the loss in response level of VHH 2, relative to the response when VHH 2 was injected alone.

The target is the same in assay [7]. As to the kind of experiment: SPR dual injection on immobilized human FOLR1, 250 nM; competitor (1st VHH, saturating) A3; by the legend the value is of the 2nd VHH. On the procedure:
as §1, §2

Assay [8] shares this target. As to the kind of experiment: SPR dual injection on immobilized human FOLR1, 250 nM; competitor (1st VHH, saturating) A4; by the legend the value is of the 2nd VHH. On the procedure:
as §1, §2

Assay [9] has the same target. As to the kind of experiment: SPR dual injection on immobilized human FOLR1, 250 nM; competitor (1st VHH, saturating) A5; by the legend the value is of the 2nd VHH. On the procedure: as §1, §2

T2 sequence (P15328 25-233): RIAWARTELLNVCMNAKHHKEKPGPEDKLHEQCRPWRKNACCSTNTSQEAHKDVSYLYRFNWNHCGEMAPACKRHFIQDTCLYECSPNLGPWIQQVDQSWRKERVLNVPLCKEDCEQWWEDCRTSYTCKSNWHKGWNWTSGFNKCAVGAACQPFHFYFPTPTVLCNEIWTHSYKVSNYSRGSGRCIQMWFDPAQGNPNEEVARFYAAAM
T1 sequence (P15328 25-234 limits assumed): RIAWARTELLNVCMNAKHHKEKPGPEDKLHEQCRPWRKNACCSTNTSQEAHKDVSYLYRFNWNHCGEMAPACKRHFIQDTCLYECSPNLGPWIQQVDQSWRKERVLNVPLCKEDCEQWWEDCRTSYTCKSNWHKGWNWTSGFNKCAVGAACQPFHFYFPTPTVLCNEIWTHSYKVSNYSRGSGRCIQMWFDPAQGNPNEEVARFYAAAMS

B1: 131I-labeled untagged VHH A3 (VHH)
VHH: DVQLVESGGGLVQAGGSLRLSCGVSGNMFSMNLMGWYRQPPGKERDWVAVITKDGSTNYADSVKGRFTISRDNAKNTVSLQMNSLKPEDTAVYYCNVQDGSGWIRAWGWDWGQGTQVTVSS
modifications: [131I]SGMIB conjugated to lysine side-chain amine groups
In turn, B1 returned an EC50 in assay [1] of 5.8 nM. Also, the “cell-associated fraction of initial bound activity after 24 h” value in assay [2] is 15%.

B2: 131I-labeled untagged VHH A1 (VHH)
VHH: DVQLVESGGGLVQPGGSLRLSCAASESIFSRNHMSWYRQAPGKQRELAAIITSDGNTNYPDSVKGRFTISRDNAKNTVYLQMNSLKPEDTAVYYCNTFGRSVAGFYDYWGQGTQVTVSS
modifications: [131I]SGMIB conjugated to lysine side-chain amine groups
Regarding B2, the concentration for a half-maximal effect (EC50) in assay [1] was 1.2 nM; in assay [3], 1.1 nM. Moreover, the “cell-associated fraction of initial bound activity after 24 h” value in assay [2] was around 40%.

B3: His6-tagged variant of VHH A1 (VHH)
VHH: B2 VHH
notes: Purified, unlabelled; also called A1 His6-tag
Consider B3, for which the Kd in [4] amounted to 0.04 nM; in assay [5], 0.44 nM. Further, the results for the off-rate (koff) in [4] and in assay [5] were 0.00014 s⁻¹ and 0.00019 s⁻¹, respectively. In addition, the kon in assay [4] stood at 3.6e+06 M⁻¹ s⁻¹; in assay [5] it was 430000 M⁻¹ s⁻¹. Moreover, the “loss in response level of VHH 2 relative to VHH 2 injected alone” value was -98% in assay [6], -100% in [7], -98% in assay [8] and -91% in assay [9].

What is called EC50 is the midpoint of the concentration-response curve. A lower EC50 goes with higher potency in that assay. The term Kd denotes the constant that tells how readily two partners part at equilibrium. As a reminder, the koff is the first-order rate constant of dissociation. By kon is commonly meant the second-order rate constant of association.
